Source: patent US20180282407A1 (FUKUSHIMA MEDICAL UNIVERSITY, published 2018)
Read-outs that look alike come from different tables or passages of the source. Ends that are not written are not given here.

T1: antigenic occludin peptide of SEQ ID NO: 7 (positions 214 to 230 of human occludin, second extracellular … (human, also: KLH carrier linked at N-terminus for immunisation, ELISA form not given here))
T1 construct: also called the antigen; antigenic peptide
T1 peptide: ALCNQFYTPAATGLYVD

T2: Ocln1 (human)
T2 construct: has a cysteine and can form a dimer, so the ELISA was also run under acidic conditions (2 N HCl); also called Ocln1 peptide
T2 peptide: ALCNQFYTPA

T3: Ocln3 (human)
T3 construct: also called Ocln3 peptide
T3 peptide: QFYTPAATG


Assays:
[1] = molecular target: human CD81 protein (human) (UniProt P60033); assay: cell-based or functional assay
[2] = molecular target: human CD81 protein (human) (UniProt P60033); assay: cell-based or functional assay; remark: listed apart in the source
[3] = molecular target: T1, antigenic occludin peptide of SEQ ID …; assay: ELISA of subclone culture supernatants on the antigen
[4] = molecular target: T2, Ocln1; assay: ELISA on coated peptide, acidic conditions (2 N HCl), HRP anti-mouse IgG
Source text: (§1) Accordingly, Ocln1 consisting of the amino acid sequence represented by SEQ ID NO: 6 ([…]) by the truncation of 7 residues from the […] side of the amino acid sequence represented by SEQ ID NO: 7, Ocln2 consisting of the amino acid sequence represented by SEQ ID NO: 11 ([…]) by the truncation of 7 residues from the 5′-terminal side thereof, and Ocln3 consisting of the amino acid sequence represented by SEQ ID NO: 12 ([…]) by the truncation of 3 to 4 residues from both terminal sides were prepared as antigenic peptides (FIG. 11A). KLH-Ocln peptide (1 μg/well) was used as a positive control antigen.
(§2) Each antigenic peptide was added at 25, 50, 100, and 500 μg/well to an antigen sensitization microplate (Nunc/Thermo Fisher Scientific Inc.) and incubated overnight at room temperature. After blocking with 5% BSA/PBS/0.09% NaN₃ at 37° C. for 2 hours, the 67-2 antibody or normal mouse IgG was added thereto and incubated at room temperature for 1 hour. Ocln1 has a cysteine residue in the sequence and is therefore capable of forming a dimer. Therefore, the analysis was also conducted under acidic conditions (2 N HCl). […] The absorbance at 450 nm/655 nm was measured using a microplate reader. […]

[5] = molecular target: T3, Ocln3; assay: ELISA on coated peptide
Source text: as §1, §2

Sequence of human CD81 protein (human) (P60033 whole entry): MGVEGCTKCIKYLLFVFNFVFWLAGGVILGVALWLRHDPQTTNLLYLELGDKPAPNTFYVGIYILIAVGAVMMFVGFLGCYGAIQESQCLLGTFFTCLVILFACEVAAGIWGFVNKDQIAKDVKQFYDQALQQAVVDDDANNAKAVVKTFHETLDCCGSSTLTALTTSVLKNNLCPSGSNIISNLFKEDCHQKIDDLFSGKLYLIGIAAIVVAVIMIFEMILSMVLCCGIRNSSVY

| Molecule | infection inhibition rate, HCVpv H77, Huh7.5.1 monolayer culture (luciferase) [1] [%] | infection inhibition rate, HCVpv con1, Huh7.5.1 monolayer culture (luciferase) [1] [%] | infection inhibition rate, HCVpv 9-3, Huh7.5.1 monolayer culture (luciferase) [2] [%] | infection inhibition rate, HCVpv con1, Huh7.5.1 monolayer culture (luciferase) [2] [%] | binding result [3] | binding result [4] | binding result [5] |
| --- | --- | --- | --- | --- | --- | --- | --- |
| anti-human CD81 antibody (JS-81 clone; BD Pharmingen) | 99.1 | 99.8 | 98 | 99 | – | – | – |
| mouse anti-human occludin monoclonal antibody clone 67-2 (antibody, IgG1, V domains shown, Mouse antibody from hybridoma C67-2; also called 67-2 antibody; anti-occludin antibody 67-2) VH: EVQLQQSGPELVKPGASVKISCKASGYTFTDYIMDWVKQSHGKSLEWIGYIYPNNGGTGYNQKFKSKATLTIDKSSSTAYMELHSLTSEDSAVYYCAREDGDYGYFDVWGAGTTVTVSS VL: QAVVTQESALTTSPGGTVILTCRSSTGAVTTSNYANWVQEKPDHLFTGLIGGTSNRAPGVPVRFSGSLIGDKAALTITGAQTEDDAMYFCALWYSTHYVFGGGTKVTVLG | – | – | – | – | binds | binds | no binding |
